Patent US20200318066A1

What was measured:
[1] = target: H-2Kb (MHC-I) presenting the ovalbumin epitope SIINFEKL (SEQ ID NO: 54) (mouse); test: flow cytometry, 25-D1.16 staining of monocytes in OVA-loaded splenocytes against SQZ only, 2 and 4 h after SQZ
[2] = target: H-2Kb (MHC-I) presenting the ovalbumin epitope SIINFEKL (SEQ ID NO: 54) (mouse); test: flow cytometry, 25-D1.16 staining of T, B and NK cells in OVA-loaded splenocytes against SQZ only, 2 and 4 h after SQZ

- increase in fluorescence intensity [1]: > 10%
- increase in fluorescence intensity [2]: > 40%
Substance: 25-D1.16 antibody
